Sequences and labels used below:
T1: Abp1 SH3 (ABP1_YEAST), P15891
T1 chain: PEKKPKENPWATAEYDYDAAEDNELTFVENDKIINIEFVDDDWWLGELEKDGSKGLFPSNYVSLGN

B1: YLR138W 520-533 (peptide)
chain: QIGSVATSGIPARP
B2: YOL061W 103-115 (peptide)
chain: PYTAKGAPIISKP
B3: YCR034W 17-29 (peptide)
chain: PQLHDYLPTLERP
B4: YPL188W 113-126 (peptide)
chain: QDFKSPLENDPNRP
B5: YBR108W 580-593 (peptide)
chain: QEDPISNFLPPPKP
B6: YOR299W 396-408 (peptide)
chain: QEAVNSSPSEFRP
B7: YDL066W 131-143 (peptide)
chain: PRIPRLVPRWEKP
B8: YLR375W 257-269 (peptide)
chain: QLDMDMYPYKLKP
B9: YER172C 458-471 (peptide)
chain: PQYDEIHIPAPSKP
B10: YKR001C 550-562 (peptide)
chain: PRQVAVDPKTGKP
B11: YLR304C 557-570 (peptide)
chain: PTSDRLQLLKPFKP
B12: YJR016C 466-478 (peptide)
chain: PRGAPGMPEMLKP
B13: YGR271W 1358-1371 (peptide)
chain: PVFMAIKQHSPDKP
B14: YBL013W 258-270 (peptide)
chain: PQNRVQAPTAYKP
B15: YLR304C 105-117 (peptide)
chain: QFMSAGLPQVAKP
B16: YNL139C 1426-1438 (peptide)
chain: PSNDRSAPKNIKP
B17: YML113W 199-211 (peptide)
chain: PYNYLQRPFIVKP
B18: YDL095W 15-28 (peptide)
chain: PVPELDIKQGPVRP
B19: YFL007W 1286-1298 (peptide)
chain: QLATSLYPDIYKP
B20: YIL072W 279-292 (peptide)
chain: QEENKLEESVPTKP
B21: YKL101W 857-870 (peptide)
chain: QLQKKNDRPSPLKP
B22: YLR263W 598-611 (peptide)
chain: QDKRNLRSNAPTKP
B23: YHL032C 439-451 (peptide)
chain: QEYGGQKPELSKP
B24: YER132C 1035-1047 (peptide)
chain: QDYGSISPSNIRP
B25: YLR224W 322-335 (peptide)
chain: PRDTIIGHGLPYKP
B26: YPL204W 411-423 (peptide)
chain: PQQLQQQPNGQRP
B27: YDR464W 340-353 (peptide)
chain: PVSSRKAVEPPRKP
B28: YHR031C 197-209 (peptide)
chain: QGLKLTVPKKIKP
B29: YLR029C 32-45 (peptide)
chain: QKNVIHRAARPTRP
B30: YHR001W-A 64-76 (peptide)
chain: PTLEDHTPPEDKP
B31: YLL022C 355-367 (peptide)
chain: PTTSIGFPALEKP
B32: YOR249C 37-50 (peptide)
chain: PTAVFLRLISPTRP
B33: YLR174W 115-127 (peptide)
chain: PRIPRLVPQWEKP
B34: YOR181W 300-312 (peptide)
chain: QAPSMGIPQQNRP
B35: YDR310C 197-210 (peptide)
chain: QHNTSSSRRGPGRP
B36: YIL091C 357-369 (peptide)
chain: QFRDDSLPPKSKP
B37: YPR129W 112-124 (peptide)
chain: QAHVQTNPQVPKP
B38: YPL243W 519-532 (peptide)
chain: PTDIQLKNLFPLKP
B39: YBR189W 5-18 (peptide)
chain: PRTYSKTYSTPKRP
B40: YGR112W 321-333 (peptide)
chain: QFIKAGVPIGRKP
B41: YMR160W 21-34 (peptide)
chain: QIREDQQEVPPQRP
B42: YOR070C 275-287 (peptide)
chain: QISWNGIPKIHRP
B43: YNR010W 13-25 (peptide)
chain: QILLPTNPTLDKP
B44: YOL019W 423-435 (peptide)
chain: PRETAAGPANIRP
B45: YPR118W 222-234 (peptide)
chain: PRMGHVFPLETRP
B46: YGL105W 194-206 (peptide)
chain: QEQQNKAPEKPKP
B47: YLR304C 734-746 (peptide)
chain: PVTMRVHPKNGKP
B48: YCL008C 82-95 (peptide)
chain: PVIMWVPSMYPVKP
B49: YER169W 386-398 (peptide)
chain: QLPNPAMPLLHRP
B50: YJL208C 31-43 (peptide)
chain: QIIETPYPPTQKP
B51: YCR024C 376-388 (peptide)
chain: PVFVTDYPRLSKP
B52: YDR389W 56-68 (peptide)
chain: PTTLKRPPLSSRP
B53: YNL137C 407-420 (peptide)
chain: QKNYVYGRQDPKKP
B54: YML109W 615-628 (peptide)
chain: PSVVSSSESQPSKP

For this assay, the target named is T1, Abp1 SH3 (ABP1_YEAST), P15891. Briefly: SPOT array.
B1 had a normalised SPOT signal, Boehringer light units (BLU); mean over the file's lines of this peptide of 66.6.

As for B2, the normalised SPOT signal, Boehringer light units (BLU); mean over the file's lines of this peptide was determined as 127.

With B3, the normalised SPOT signal, Boehringer light units (BLU); mean over the file's lines of this peptide came to 0.

For B4, the normalised SPOT signal, Boehringer light units (BLU); mean over the file's lines of this peptide came to 41.4.

In turn, B5 showed a normalised SPOT signal, Boehringer light units (BLU); mean over the file's lines of this peptide of 114.

The molecule B6 returned a normalised SPOT signal, Boehringer light units (BLU); mean over the file's lines of this peptide of 165.

Consider B7, for which the normalised SPOT signal, Boehringer light units (BLU); mean over the file's lines of this peptide stood at 3910.

For the molecule B8, the normalised SPOT signal, Boehringer light units (BLU); mean over the file's lines of this peptide was 57.3.

Take B9: the normalised SPOT signal, Boehringer light units (BLU); mean over the file's lines of this peptide amounted to 36.2.

B10 yielded a normalised SPOT signal, Boehringer light units (BLU); mean over the file's lines of this peptide of 32.3.

Turning to B11, the normalised SPOT signal, Boehringer light units (BLU); mean over the file's lines of this peptide was determined as 920.

For B12, the normalised SPOT signal, Boehringer light units (BLU); mean over the file's lines of this peptide was determined as 146.

In turn, B13 yielded a normalised SPOT signal, Boehringer light units (BLU); mean over the file's lines of this peptide of 790.

B14 had a normalised SPOT signal, Boehringer light units (BLU); mean over the file's lines of this peptide of 287.

With B15, the normalised SPOT signal, Boehringer light units (BLU); mean over the file's lines of this peptide was 140.

B16 gave a normalised SPOT signal, Boehringer light units (BLU); mean over the file's lines of this peptide of 86.5.

In the case of B17, the normalised SPOT signal, Boehringer light units (BLU); mean over the file's lines of this peptide came to 206.

In turn, B18 registered a normalised SPOT signal, Boehringer light units (BLU); mean over the file's lines of this peptide of 183.

Molecule B19 yielded a normalised SPOT signal, Boehringer light units (BLU); mean over the file's lines of this peptide of 86.3.

B20 showed a normalised SPOT signal, Boehringer light units (BLU); mean over the file's lines of this peptide of 88.

B21 came in with a normalised SPOT signal, Boehringer light units (BLU); mean over the file's lines of this peptide of 347.

Turning to B22, the normalised SPOT signal, Boehringer light units (BLU); mean over the file's lines of this peptide was 67.5.

On to B23, for which the normalised SPOT signal, Boehringer light units (BLU); mean over the file's lines of this peptide turned out to be 58.1.

In the case of B24, the normalised SPOT signal, Boehringer light units (BLU); mean over the file's lines of this peptide is 0.

Take B25: the normalised SPOT signal, Boehringer light units (BLU); mean over the file's lines of this peptide is 46.8.

In the case of B26, the normalised SPOT signal, Boehringer light units (BLU); mean over the file's lines of this peptide worked out at 128.

For B27, the normalised SPOT signal, Boehringer light units (BLU); mean over the file's lines of this peptide was found to be 479.

B28 returned a normalised SPOT signal, Boehringer light units (BLU); mean over the file's lines of this peptide of 1000.

B29: the normalised SPOT signal, Boehringer light units (BLU); mean over the file's lines of this peptide came to 253.

Take B30: the normalised SPOT signal, Boehringer light units (BLU); mean over the file's lines of this peptide stood at 81.

Molecule B31 returned a normalised SPOT signal, Boehringer light units (BLU); mean over the file's lines of this peptide of 49.2.

B32 had a normalised SPOT signal, Boehringer light units (BLU); mean over the file's lines of this peptide of 37.3.

For the molecule B33, the normalised SPOT signal, Boehringer light units (BLU); mean over the file's lines of this peptide is 698.

For B34, the normalised SPOT signal, Boehringer light units (BLU); mean over the file's lines of this peptide stood at 117.

Take B35: the normalised SPOT signal, Boehringer light units (BLU); mean over the file's lines of this peptide was found to be 579.

The molecule B36 registered a normalised SPOT signal, Boehringer light units (BLU); mean over the file's lines of this peptide of 196.

For the molecule B37, the normalised SPOT signal, Boehringer light units (BLU); mean over the file's lines of this peptide was 0.

In turn, B38 showed a normalised SPOT signal, Boehringer light units (BLU); mean over the file's lines of this peptide of 128.

Molecule B39 returned a normalised SPOT signal, Boehringer light units (BLU); mean over the file's lines of this peptide of 88.1.

For the molecule B40, the normalised SPOT signal, Boehringer light units (BLU); mean over the file's lines of this peptide turned out to be 7910.

With B41, the normalised SPOT signal, Boehringer light units (BLU); mean over the file's lines of this peptide is 74.4.

Turning to B42, the normalised SPOT signal, Boehringer light units (BLU); mean over the file's lines of this peptide was determined as 1750.

Turning to B43, the normalised SPOT signal, Boehringer light units (BLU); mean over the file's lines of this peptide came out at 135.

With B44, the normalised SPOT signal, Boehringer light units (BLU); mean over the file's lines of this peptide is -0.

Turning to B45, the normalised SPOT signal, Boehringer light units (BLU); mean over the file's lines of this peptide was 4090.

B46: the normalised SPOT signal, Boehringer light units (BLU); mean over the file's lines of this peptide is 46.6.

Consider B47, for which the normalised SPOT signal, Boehringer light units (BLU); mean over the file's lines of this peptide was 1700.

B48 yielded a normalised SPOT signal, Boehringer light units (BLU); mean over the file's lines of this peptide of 94.4.

The molecule B49 had a normalised SPOT signal, Boehringer light units (BLU); mean over the file's lines of this peptide of 160.

As to B50, the normalised SPOT signal, Boehringer light units (BLU); mean over the file's lines of this peptide is 55.

Molecule B51 returned a normalised SPOT signal, Boehringer light units (BLU); mean over the file's lines of this peptide of 93.5.

Take B52: the normalised SPOT signal, Boehringer light units (BLU); mean over the file's lines of this peptide was 6140.

On to B53, for which the normalised SPOT signal, Boehringer light units (BLU); mean over the file's lines of this peptide was 147.

B54 returned a normalised SPOT signal, Boehringer light units (BLU); mean over the file's lines of this peptide of 23.6.
